The record followed here is PMC10511499.

Sequences and labels used below:
B1: full-length yeast Pac1 with C-terminal FLAG-SNAPf [S. cerevisiae] / yeast Ndl1 coiled-coil domain (Ndl1^CC, residues 2-132) [S. cerevisiae] (parent)
chain 1: MTNWQQQLPLTDTQKNELDKSVLRYLNWNYKQTVRHEHAQDYESVRHAIVTLSGFLLQESVDRQEFISNNDTSNESMVDIDELLLPKKWNSIVRLQKKIIELEQNTETLVSQIKDLNTQVSELAQFKPTTSNGTSAHNVLKWIPRNLPSCLINVESSVTSVKLHPNLPIVFVATDHGKLYAFDLFNYTIPLASLQSHTKAITSMDVLFTNYTNSSKKNYLVIVTASKDLQIHVFKWVSEECKFQQIRSLLGHEHIVSAVKIWQKNNDVHIASCSRDQTVKIWDFHNGWSLKTFQPHSQWVRSIDVLGDYIISGSHDTTLRLTHWPSGNGLSVGTGHEFPIEKVKFIHFIEDSPEIRFRTPSTDRYKNWGMQYCVSASRDRTIKIWEIPLPTLMAHRAPIPNPTDSNFRCVLTLKGHLSWVRDISIRGQYLFSCADDKSVRCWDLNTGQCLHVWEKLHTGFVNCLDLDVDFDSNVTPRQMMVTGGLDCKSNVFMR
chain 2: VPNLDLETAIQIISSLETQLSELEGATKEYENDLEQVISKLKSDLLESQQQNKCNKKQITDLEIQVDELENENIQLRNKIETLQLESDRRLERNVLLEHELLDTKEALQKLRVSKEEATSGETRRNTRSLP
B2: LIS1, wild type, as used in mass photometry (construct not told) [human] / human Ndel1 coiled-coil domain (Ndel1^CC, residues 1-195) [human] (parent)
chain 1: MVLSQRQRDELNRAIADYLRSNGYEEAYSVFKKEAELDVNEELDKKYAGLLEKKWTSVIRLQKKVMELESKLNEAKEEFTSGGPLGQKRDPKEWIPRPPEKYALSGHRSPVTRVIFHPVFSVMVSASEDATIKVWDYETGDFERTLKGHTDSVQDISFDHSGKLLASCSADMTIKLWDFQGFECIRTMHGHDHNVSSVAIMPNGDHIVSASRDKTIKMWEVQTGYCVKTFTGHREWVRMVRPNQDGTLIASCSNDQTVRVWVVATKECKAELREHEHVVECISWAPESSYSSISEATGSETKKSGKPGPFLLSGSRDKTIKMWDVSTGMCLMTLVGHDNWVRGVLFHSGGKFILSCADDKTLRVWDYKNKRCMKTLNAHEHFVTSLDFHKTAPYVVTGSVDQTVKVWECR
chain 2: MDGEDIPDFSSLKEETAYWKELSLKYKQSFQEARDELVEFQEGSRELEAELEAQLVQAEQRNRDLQADNQRLKYEVEALKEKLEHQYAQSYKQVSVLEDDLSQTRAIKEQLHKYVRELEQANDDLERAKRATIVSLEDFEQRLNQAIERNAFLESELDEKESLLVSVQRLKDEARDLRQELAVRERQQEVTRKSA

The variants in one assay derive from B1. Description: mass photometry. Particulars: with yeast Ndl1 coiled-coil domain (Ndl1^CC, residues 2-132) [S. cerevisiae]; Proteins mixed at a 1:1 molar ratio.
In the case of chain 1 R275A R301A R378A W419A K437A, the screen value was 0%.

In another assay the parent is B2. Description: mass photometry. Conditions: with human Ndel1 coiled-coil domain (Ndel1^CC, residues 1-195) [human]; Proteins mixed at a 1:1 molar ratio.
For chain 1 W340A, the screen value was 0%.

For the variant chain 1 R316A, the screen value was 5%.
